Measured values reported in publication PMC5761895.
pEC50: −log10 of the molar value.

Molecular target: Fluorescently labelled replication protein A (Flu-RPA) (human) (UniProt P27694)
Sequence (P27694 whole entry, chain 1 of 3): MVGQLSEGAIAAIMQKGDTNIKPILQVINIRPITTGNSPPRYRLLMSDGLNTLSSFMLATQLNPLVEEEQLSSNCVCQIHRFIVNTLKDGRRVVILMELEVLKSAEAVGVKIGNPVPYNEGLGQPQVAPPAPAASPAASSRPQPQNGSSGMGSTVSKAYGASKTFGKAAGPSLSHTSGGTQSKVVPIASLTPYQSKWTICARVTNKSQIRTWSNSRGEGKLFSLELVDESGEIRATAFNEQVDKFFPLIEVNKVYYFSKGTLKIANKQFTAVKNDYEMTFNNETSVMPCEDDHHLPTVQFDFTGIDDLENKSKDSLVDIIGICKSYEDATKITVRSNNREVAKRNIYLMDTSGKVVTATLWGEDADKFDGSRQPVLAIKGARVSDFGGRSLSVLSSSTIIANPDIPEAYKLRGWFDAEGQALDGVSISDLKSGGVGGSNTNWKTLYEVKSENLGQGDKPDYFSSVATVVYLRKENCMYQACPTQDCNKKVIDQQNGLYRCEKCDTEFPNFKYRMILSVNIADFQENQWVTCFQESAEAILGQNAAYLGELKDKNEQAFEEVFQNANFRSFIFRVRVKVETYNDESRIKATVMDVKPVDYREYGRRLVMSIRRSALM
Sequence (P15927 whole entry, chain 2 of 3, further chain): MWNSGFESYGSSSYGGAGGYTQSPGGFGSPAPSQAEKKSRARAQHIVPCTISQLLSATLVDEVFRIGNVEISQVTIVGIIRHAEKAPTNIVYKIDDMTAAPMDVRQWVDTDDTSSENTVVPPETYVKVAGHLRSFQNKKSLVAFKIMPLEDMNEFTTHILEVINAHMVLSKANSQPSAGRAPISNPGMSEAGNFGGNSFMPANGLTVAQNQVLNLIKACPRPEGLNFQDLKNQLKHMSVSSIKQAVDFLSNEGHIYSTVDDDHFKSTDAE
Sequence (P35244 whole entry, chain 3 of 3, further chain): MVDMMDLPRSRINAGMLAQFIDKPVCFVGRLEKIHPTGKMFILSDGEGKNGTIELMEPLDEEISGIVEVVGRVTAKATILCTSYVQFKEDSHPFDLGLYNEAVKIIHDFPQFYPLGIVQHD

Sequence of Recombinant human xeroderma pigmentosum group A protein (hXPA) bearing the N-terminal polyhistidine fragment (P23025 whole entry, the tested form may be a part): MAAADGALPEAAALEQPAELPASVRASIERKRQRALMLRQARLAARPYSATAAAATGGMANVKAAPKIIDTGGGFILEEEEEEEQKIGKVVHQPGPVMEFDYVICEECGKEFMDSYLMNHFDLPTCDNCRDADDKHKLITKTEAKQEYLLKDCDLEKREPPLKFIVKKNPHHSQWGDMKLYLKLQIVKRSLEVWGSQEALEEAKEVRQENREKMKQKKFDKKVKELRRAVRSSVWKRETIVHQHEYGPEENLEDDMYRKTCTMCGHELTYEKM

Substance: Recombinant human xeroderma pigmentosum group A protein (hXPA) bearing the N-terminal polyhistidine fragment (from UniProt P23025 1-273) (natural protein)
- pEC50: 7.74
